Measurements taken from the supplement of paper PMC10567573.
± gives the standard deviation.

Assay: protein stability index of a GFP-peptide fusion (GPS, HEK-293T) (PSI 1-6); higher = more stable
Conditions: c terminus: a fixed tail appended
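Further: 24-mer peptide tiles fused after GFP, lentivirally expressed, FACS-sorted into six equal bins by GFP/DsRed ratio, decoded by Illumina sequencing, PSI is the read-weighted mean bin number.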

Row | Sequence | protein stability index (treatment: DMSO) | protein stability index (treatment: MLN4924 1 uM, 8 h)
1 | GAYGNLKRLYDKAAKMYHQLKKCE [SMG5] | 2.45 ± 1 | 2.325 ± 0.014
2 | SSTTGLFYSAEIICAIEYLHSKEI [PRKX] | 3.13 ± 0.61 | 3.33 ± 1
3 | SRLWDSRLRHYLGSRYDARRGVSD [DNAAF3] | 3.09 ± 0.33 | 3.23 ± 0.18
4 | AALSASMASLLEDLSHIEGLSQAP [SERTAD1] | 2.81 ± 0.22 | 2.76 ± 0.26
5 | PMENLEKQLICPICLEMFTKPVVI [TRIM63] | 2.43 ± 0.089 | 2.38 ± 0.36
6 | LVTYTNRYIIFKRNTLNQPCSGSV [GMCL1] | 2.29 ± 0.24 | 2.07 ± 0.2
7 | MKSEEQKIKDARKGPLVPFPNQKS [KMT5A] | 5.01 ± 0.18 | 5.23 ± 0.19
8 | MKCLKVGMLKEGVRLDRVRGGRQK [ESRRG] | 3.5 ± 0.092 | 3.73 ± 0.21
9 | DTRRLITKPQNLNDAYGPPSNFLE [SNX3] | 3.69 ± 0.17 | 3.88 ± 0.17
10 | DKLLKHMIIEHKIVIADVKLVADF [ZNF277] | 3.07 ± 0.33 | 2.82 ± 0.72
11 | ENKENEAFEFKKPVRPVSRGCLHS [CDC25A] | 3.87 ± 0.7 | 3.73 ± 0.52
12 | EVKSSIAGSSTWERYFIPVSCFLT [SLC29A1] | 2.44 ± 0.37 | 2.34 ± 0.36
13 | PSGAGKTVVGVPSGKVSSSSSSLG [ZC2HC1A] | 4.47 ± 0.35 | 4.65 ± 0.14
14 | GLDSPPLYPSAPILGGSGPVRKLY [ESRRG] | 3.37 ± 0.13 | 3.49 ± 0.24
15 | SHSKAPSGSQMSHNAVTSHQRPGW [NCF4] | 3.88 ± 0.23 | 4.05 ± 0.22
16 | EDMLWDDLLHGPECRSSVTSDSEG [PHTF1] | 5.07 ± 0.3 | 5.16 ± 0.16

Row | Sequence | protein stability index (treatment: DMSO) | protein stability index (treatment: MLN4924 1 uM, 8 h)
17 | TECEPSELFQLQTYSLPPFLKAVL [CDS1] | 2.65 ± 0.22 | 2.56 ± 0.22
18 | MATTVTCTRFTDEYQLYEDIGKGA [CAMK2B] | 3.25 ± 0.2 | 3.31 ± 0.18
19 | PVNALVSHLLVVEPEKLYAMPDPA [ESRRA] | 2.88 ± 0.24 | 2.92 ± 0.27
20 | ESSPSHDRSRTVSASSTGDLPKAK [SRPK2] | 5.16 ± 0.33 | 5.22 ± 0.16
21 | EHPGGEEVLREQAGGDATENFEDV [CYB5A] | 5.47 ± 0.2 | 5.54 ± 0.24
22 | YIPVIKRALNSVPVIIAAVGTRQN [RHOBTB3] | 2.35 ± 0.52 | 2.24 ± 0.35
23 | REVILKELAEATWCGISTDMWRSE [ZBED1] | 2.71 ± 0.62 | 2.93 ± 0.58
24 | RRDCDALMAGCIQEARERWNFDFV [CDKN1A] | 2.06 ± 0.25 | 2.05 ± 0.19
25 | QNLLKELQDLALQGAKERAHQQKK [CHGA] | 4.75 ± 0.23 | 4.52 ± 0.14
26 | ILVNLQGTVVFLLSLFIPESPRWL [SLC22A15] | 3.12 ± 0.14 | 3.23 ± 0.48
27 | VRVPNGGGGGGGLPISTVREVALL [CDK4] | 2.5 ± 0.33 | 2.63 ± 0.23
28 | ILAETGIRKTVKRLRKHQHVGDFA [ELOA2] | 2.78 ± 0.23 | 3.16 ± 0.49
29 | VVSMTTVGYGDMYPVTIGGKIVGS [KCNA1] | 2.29 ± 0.36 | 2.14 ± 0.24
30 | FENPADAKNAAKDMNGKSLHGKAI [RBMY1A1] | 4.92 ± 0.14 | 5 ± 0.23
31 | QVTASDSGDPPLSSNVSLSLFVLD [PCDHGA10] | 3.31 ± 0.4 | 3.48 ± 0.29
32 | VGNISKDLGLAPRELAERGVRIVS [PCDHGA10] | 3.57 ± 0.29 | 3.75 ± 0.42
